Reference: the PETadex activity labels (doi:10.1021/bi00096a018)
Residue numbers refer to the chain shown, from its start.

B1: unnamed (protein)
chain: MRPPWYPLHTPSLAFPLLFLLLSLLGGGARAEGREDPQLLVRVRGGQLRGIRLKAPGGPVSAFLGIPFAEPPVGSRRFMPPEPKRPWSGVLDATTFQNVCYQNVDTLYPGFEGTEMWNPNRELSEDCLYLNVWTPYPRPASPTPVLIWIYGGGFQSGAASLDVYDGRFLAQVEGAVLVSMNYRVGTFGFLALPGSREAPGNVGLLDQRLALQWVQENIAAFGGDPMSVTLFGESAGAASVGMHILSLPSRSLFHRAVLQSGTPNGPWATVSAGEARRRATLLARLVGCPPGGAGGNDTELIACLRTRPAQDLVDHERHVLPQESIFRFSFVPVVDGDFLSDTPEALINTGDFQDLQVLVGVVKDEGSYFLVYGVPGFSKDNESLISRAQFLAGVRIGVPQASDLAAEAVVLHYTDWLHPEDPTHLRDAMSAVVGDHNVVCPVAQLAGRLAAQGARVYAYIFEHRASTLTWPLWMGVPHGYEIEFIFGLPLDPSLNYTTEERIFAQRLMKYWTNFARTGDPNDPRDSKSPQWPPYTTAAQQYVSLNLKPLEVRRGLRAQTCAFWNRFLPKLLSATDTLDEAERQWKAEFHRWSSYMVHWKNQFDHYSKQERCSDL
B2: unnamed (protein)
chain: B1 chain with N103Q, Q155Y
B3: unnamed (protein)
chain: B1 chain with N103Y, Q155Y, R317W, F369G
B4: unnamed (protein)
chain: B1 chain with D105N
B5: unnamed (protein)
chain: B1 chain with N103Y, Q155Y, R317W, F326L

These proteins were tested on Acetylcholine. Conditions: pH 7; 22 °C.

Q: B1 was tested. Which Km did it give?
A: 850 µM

Q: What about the kcat of the same protein?
A: 3500 s⁻¹

Q: B2 was tested. Which Km did it give?
A: 700 µM

Q: And the kcat?
A: 2670 s⁻¹

Q: How did the Km turn out when B3 was run?
A: 75 µM

Q: And the kcat?
A: 383 s⁻¹

Q: Which Km does the source give for B4 here?
A: 6100 µM

Q: And the kcat?
A: 2330 s⁻¹

Q: For B5, which Km is on record?
A: 49 µM

Q: What about the kcat of the same protein?
A: 733 s⁻¹
